Drawing on PMC9762252, this text covers Km, kcat and kcat/Km for seven substances.

The subject of this data set is O=C(O)C(=O)/C=C/c1ccccc1O. As to the kind of experiment: purified protein. The settings on record: 50 mM Na2HPO4 pH 7.2, 22 °C.
The term Km denotes the concentration of substrate that gives half-maximal velocity. What is called kcat is the number of substrate molecules converted per active site and unit of time at saturation. As usually defined, the kcat/Km is the second-order rate constant that governs catalysis at low substrate concentration. On to “NahE (His-tag NahE) (Pseudomonas putida; T65S)”, for which the Km is 1.7 ± 0.3 µM, the kcat turned out to be 0.0085 s⁻¹ and the catalytic efficiency (kcat/Km) stood at 5000 M⁻¹ s⁻¹.

As for “NahE (His-tag NahE) (Pseudomonas putida; W128Y)”, the Km came to 7 ± 1 µM, the kcat amounted to 5 s⁻¹ and the kcat/Km is 700000 M⁻¹ s⁻¹.

“NahE (His-tag NahE) (Pseudomonas putida; Y155F)”: the Km was determined as 4 ± 1 µM, the turnover number (kcat) is 0.004 s⁻¹ and the kcat/Km was determined as 1000 M⁻¹ s⁻¹.

“NahE (His-tag NahE) (Pseudomonas putida; T65V)”: the Km is 21 ± 8 µM, the kcat was determined as 0.004 s⁻¹ and the kcat/Km came to 190 M⁻¹ s⁻¹.

Turning to “NahE (His-tag NahE) (Pseudomonas putida; W128F)”, the Km turned out to be 8 ± 2 µM, the kcat came to 8 s⁻¹ and the kcat/Km is 1e+06 M⁻¹ s⁻¹.

With “NahE (His-tag NahE) (Pseudomonas putida; N157A)”, the Michaelis-Menten constant (Km) amounted to 8 ± 1 µM, the kcat came to 0.13 s⁻¹ and the kcat/Km came to 16000 M⁻¹ s⁻¹.

As to “NahE (His-tag NahE) (Pseudomonas putida; N157L)”, the Michaelis-Menten constant (Km) came to 60 ± 10 µM, the turnover number (kcat) worked out at 0.6 s⁻¹ and the kcat/Km was determined as 10000 M⁻¹ s⁻¹.
